Experimental data taken from patent US20060246519.

How the values were obtained:
[1] = SDS-PAGE/Western blot of non-boiled culture supernatant; self-association of subunits
[2] = SDS-PAGE/Western blot of non-boiled culture supernatant, 20 uM biotin in medium; self-association of subunits

B1: streptavidin mutein M4 (T76R, V125R, V55T, L109T), secreted by B. subtilis (protein)
chain: DPSKDSKAQVSAAEAGITGTWYNQLGSTFIVTAGADGALTGTYESAVGNAESRYTLTGRYDSAPATDGSGTALGWRVAWKNNYRNAHSATTWSGQYVGGAEARINTQWTLTSGTTEANAWKSTLRGHDTFTKVKPSAASIDAAKKAGVNNGNPLDAVQQ
% monomer, no additional biotin [1]: 100% | % monomer, with additional biotin [2]: 100%
